Consider 1 protein from paper PMC4429112, “Characterization of a Highly pH Stable Chi-Class Glutathione S-Transferase from Synechocystis PCC 6803” (PLoS ONE, 2015).

Substrate in series [1]: S=C=NCCc1ccccc1
Briefly: purified protein. It counts as biochemical, Synechocystis sp. PCC 6803. Also noted: Vmax: unit not given here. The settings on record: co-substrate 1 mM GSH, 50 mM potassium phosphate pH 6.5, 150 mM NaCl, 30 °C.

Series [2] concerns the molecule itself. Briefly: SEC; Superdex 200 10/300 GL, 20 mM phosphate buffer pH 8.0, 150 mM NaCl, 2 mM GSH, 0.5 mL/min, 25°C; calibrated with molecular weight standards. For orientation: In gel filtration, larger molecules generally elute earlier.

B1: Glutathione S-transferase sll0067 from Synechocystis PCC 6803 (enzyme, UniProt Q55139 1-184, looked up)
chain: MIKLYGAPQSRASIIQWYLEELSLPYEFVNVNLKEGEHRQAPYLAINPFGKVPAIADGNFHLWESGAILLYLAEKASTIPADAQARALVNQWILFANSTLANGLFIEAVREKEMPRLLQSLEKILGRSPFILGEKFSVVDVAVGSILAYVPIMLKLNFDDYPAVAAYVQGLVQRPAFQASIGAR
notes: gene of 0.55 kb amplified from genomic DNA with primers from the ATG to the stop codon; subunit of about 20 kDa; Cloned at BamHI and HindIII sites of pQE30 and purified on Ni-NTA; also called GST sll0067; recombinant sll0067; source: E. coli M15, purified (Ni-NTA agarose)
Broadly, the Km is the concentration of substrate that gives half-maximal velocity. By kcat is commonly meant the maximal rate divided by the concentration of active sites. The kcat/Km is the second-order rate constant that governs catalysis at low substrate concentration. Usually stoichiometry N stands for a count of units in the complex or per binding partner. On to B1, for which, in series [1], the Km is listed as 0.3193 ± 0.033 mM, the Vmax was found to be 21.8, the kcat is 15.2 ± 0.58 s⁻¹ and the kcat/Km was found to be 47500 ± 620 M⁻¹ s⁻¹. In addition, the “stoichiometry N” value in series [2] amounted to 2.
